Data reported in US20120045393A1 (priority 2009, published 2012).
Non-standard residues stand in square brackets, D forms with d. Bpa = N[C@@H](Cc1ccc(C(=O)c2ccccc2)cc1)C(=O)O; d1Nal = N[C@H](Cc1cccc2ccccc12)C(=O)O; d2Nal = N[C@H](Cc1ccc2ccccc2c1)C(=O)O; d3Pal = N[C@H](Cc1cccnc1)C(=O)O; His(1-Me) = 1-methylhistidine; DO3A10CM = not defined here; Bzgly = not defined here; dCfe4 = not defined here; Afe4 = not defined here; azaGly = NNC(=O)O; Sar = CNCC(=O)O

Assays:
[1] = biological target: LHRH receptor (LHRH binding sites) on EFO-27 human ovarian cancer cells (human); assay: competition with [125I-Tyr8]BRU-2477 for binding to EFO-27 cells
[2] = biological target: LHRH receptor (LHRH binding sites) on EFO-27 human ovarian cancer cells (human); assay: direct binding of 177Lu-labeled peptide to EFO-27 cells, single concentration
[3] = biological target: LHRH receptor (LHRH binding sites) on EFO-27 human ovarian cancer cells (human); assay: competition with [125I-Tyr8]BRU-2477, EFO-27 cells
[4] = biological target: LHRH binding sites on EFO-27 human ovarian cancer cells (human); assay: competition with [125I-Tyr8]BRU-2477 on EFO-27 cells

B1: BRU-3076 (peptide)
peptide: XRWSHXWXP
modifications: as printed: Sar-R-W-S-H-Darg-W-Bpa4-P-Daprp13-DO3A10CM (C-terminal chelator)
- EC50 [1]: 750 nM

B2: ^177Lu-BRU-2792 (peptide)
peptide: DO3A10CM-G[Bzgly]HWSH[dR]W[Bpa]P[azaGly]-NH2
modifications: reading uncertain; also: 177Lu complexed by DO3A10CM, printed as 177Lu-DO3A10CM-Gly-Bzgly-His-Trp-Ser-His-Darg-Trp-Bpa4-Pro-azaGly-NH2
- % Bound [2]: 1.28%

B3: ^177Lu-BRU-2736 (peptide)
peptide: XHWSHXWXPX
modifications: 177Lu held by the N-terminal DO3A10CM: 177Lu-DO3A10CM-Meala-His-Trp-Ser-His-Darg-Trp-Bpa4-Pro-azaGly-NH2
- % Bound [2]: 1.62%

B4: ^177Lu-BRU-2823 (peptide)
peptide: XHWSHXWXPX
modifications: 177Lu held by the N-terminal DO3A10CM: 177Lu-DO3A10CM-Sar-His-Trp-Ser-His-Darg-Trp-Thy-Pro-azaGly-NH2
- % Bound [2]: 1%

B5: BRU-3097 (peptide)
peptide: KXRWSHXWXPX
modifications: as printed: DO3A10CM-Lys-Dnal2-Arg-Trp-Ser-His-Darg-Trp-Bpa4-Pro-azaGly-NH2 (Lys is the linker)
- EC50 [1]: 450 nM
- EC50 [3]: 450 nM

B6: ^177Lu-BRU-2741 (peptide)
peptide: DO3A10CM-[Sar][His(1-Me)]WSH[dR]W[Bpa]P[azaGly]-NH2
modifications: reading uncertain; also: 177Lu complexed by DO3A10CM, printed as 177Lu-DO3A10CM-Sar-His(1-Me)-Trp-Ser-His-Darg-Trp-Bpa4-Pro-azaGly-NH2
- % Bound [2]: 1.35%

B7: ^177Lu-BRU-2644 (peptide)
peptide: DO3A10CM-G[d2Nal][dCfe4][d3Pal]SH[dR]WYP[dA]-NH2
modifications: reading uncertain; also: 177Lu complexed by DO3A10CM, printed as 177Lu-DO3A10CM-Gly-Dnal2-Dcfe4-Dpal3-Ser-His-Darg-Trp-Tyr-Pro-Dala-NH2
- % Bound [2]: 2.13%

B8: ^177Lu-BRU-2742 (peptide)
peptide: XHWSHXWXPX
modifications: 177Lu held by the N-terminal DO3A10CM: 177Lu-DO3A10CM-Sar-His-Trp-Ser-His-Darg-Trp-Tha-Pro-azaGly-NH2
- % Bound [2]: 0.125%

B9: ^177Lu-BRU-2766 (peptide)
peptide: DO3A10CM-G[d1Nal]HWSH[dR]W[Bpa]P[azaGly]-NH2
modifications: reading uncertain; also: 177Lu complexed by DO3A10CM, printed as 177Lu-DO3A10CM-Gly-Dnal1-His-Trp-Ser-His-Darg-Trp-Bpa4-Pro-azaGly-NH2
- % Bound [2]: 10.3%

B10: BRU-3073 (peptide)
peptide: XRWSHXWXPP
modifications: as printed: Sar-R-W-S-H-Darg-W-Bpa4-P-P-Az23po-Da15o3pt-DO3A10CM (C-terminal chelator)
- EC50 [1]: 840 nM

B11: ^177Lu-BRU-2894 (peptide)
peptide: XHWSHXWXPX
modifications: 177Lu held by the N-terminal DO3A10CM: 177Lu-DO3A10CM-Dphe-His-Trp-Ser-His-Darg-Trp-Bpa4-Pro-azaGly-NH2
- % Bound [2]: 3.4%

B12: BRU-3074 (peptide)
peptide: XRWSHXWXP
modifications: as printed: Sar-R-W-S-H-Darg-W-Bpa4-P-NHNH-DO3A10CM (C-terminal chelator)
- EC50 [1]: 1480 nM
- fold reduced binding against peptide 18 (BRU-3103) [4]: 5 to 6 fold

B13: BRU-2717 (peptide)
peptide: GXHWSHXWXPX
modifications: as printed: DO3A10CM-Gly-Sar-His-Trp-Ser-His-Darg-Trp-Bpa4-Pro-azaGly-NH2 (Gly is the linker)
- EC50 [1]: 1530 nM
- EC50 [4]: 1550 nM

B14: BRU-3085 (peptide)
peptide: XRWSHXWXP
modifications: as printed: Sar-R-W-S-H-Darg-W-Bpa4-P-Dapt15-DO3A10CM (C-terminal chelator)
- EC50 [1]: 400 nM
- EC50 [3]: 400 nM

B15: BRU-3043 (peptide)
peptide: XRWSHXWXP
modifications: as printed: Sar-R-W-S-H-Darg-W-Bpa4-P-Da18o36oc-DO3A10CM (C-terminal chelator)
- EC50 [1]: 330 nM
- EC50 [3]: 330 nM

B16: BRU-3044 (peptide)
peptide: XRWSHXWXP
modifications: as printed: Sar-R-W-S-H-Darg-W-Bpa4-P-bap14p-DO3A10CM (C-terminal chelator)
- EC50 [1]: 240 nM
- EC50 [3]: 240 nM

B17: ^177Lu-BRU-2443 (peptide)
peptide: XHWSHXWXPX
modifications: 177Lu held by the N-terminal DO3A10CM: 177Lu-DO3A10CM-Sar-His-Trp-Ser-His-Darg-Trp-Bpa4-Pro-azaGly-NH2
- % Bound [2]: 1.8%

B18: ^177Lu-BRU-2624 (peptide)
peptide: XHWSHXWXPX
modifications: 177Lu held by the N-terminal DO3A10CM: 177Lu-DO3A10CM-Sar-His-Trp-Ser-His-Darg-Trp-Nal2-Pro-azaGly-NH2
- % Bound [2]: 4.03%

B19: BRU-2992 (peptide)
peptide: XRWSHXWXP
modifications: as printed: Ac-Dnal2-R-W-S-H-Darg-W-Bpa4-P-Da15o3pt-DO3A10CM (N-acetyl; C-terminal chelator)
- EC50 [1]: 470 nM
- EC50 [3]: 470 nM

B20: BRU-2443 (peptide)
peptide: XHWSHXWXPX
modifications: as printed: DO3A10CM-Sar-His-Trp-Ser-His-Darg-Trp-Bpa4-Pro-azaGly-NH2
- EC50 [1]: 950 nM
- EC50 [4]: 950 nM
- fold improvement of EC50 against the Tyr8 analog (BRU-2758) [4]: 10 fold

B21: BRU-3102 (peptide)
peptide: XRWSHXWXP
modifications: as printed: Sar-R-W-S-H-Darg-W-Bpa4-P-Ampip2-DO3A10CM (C-terminal chelator)
- EC50 [1]: 200 nM
- EC50 [3]: 200 nM

B22: BRU-3079 (peptide)
peptide: XHWSHXWXP
modifications: as printed: Sar-H-W-S-H-Darg-W-Bpa4-P-Dae-DO3A10CM (C-terminal chelator)
- EC50 [1]: 590 nM

B23: BRU-2968 (peptide)
peptide: XRWSHXWXP
modifications: as printed: DO3A10CM-Dnal2-Arg-Trp-Ser-His-Darg-Trp-Bpa4-Pro-Da15o3pt (C-terminal amide of 1,5-diamino-3-oxapentane)
- EC50 [1]: 240 nM
- EC50 [4]: 240 nM
- EC50 [3]: 240 nM

B24: ^177Lu-BRU-2812 (peptide)
peptide: DO3A10CM-[d2Nal][Afe4]WSH[dR]W[Bpa]P[azaGly]-NH2
modifications: reading uncertain; also: 177Lu held by N-terminal DO3A10CM, printed as 177Lu-DO3A10CM-Dnal2-Afe4-Trp-Ser-His-Darg-Trp-Bpa4-Pro-azaGly-NH2
- % Bound [2]: 5.8%

B25: BRU-3041 (peptide)
peptide: XRWSHXWXP
modifications: as printed: Sar-R-W-S-H-Darg-W-Bpa4-P-Dabt14-DO3A10CM (C-terminal chelator)
- EC50 [1]: 360 nM
- EC50 [3]: 360 nM
